Measured values: patent US20150335719A1, “Intravitreal Injection of a Chimeric Phage Endolysin Ply187; Protection from Staphylococcus aureus Endophthalmitis” (priority 2014, published 2015)
Several values for one entry are separate records, joined by “and”; a condition that tells them apart may be missing. Equal entries are not always repeated.

Legend:
[1] = system: neutrophil (PMN) infiltration in retina/vitreous; assay: Mouse S. aureus endophthalmitis: PMN infiltration by flow cytometry (CD45/Ly6G); type: in vivo, C57BL/6 mice; settings: vs vehicle-treated/control eyes, 24 h post treatment
Description: FIG. 6 depicts infiltration of polymorphonuclear cells (PMNs) in the Ply187AN-KSH3b-treated mouse retina/vitreous cavity. Infected eyes were given intravitreal injections of either EB or chimeric Ply187AN-KSH3b for either 6 or 12 h post infection. Twenty four hour post Ply187AN-KSH3b treatment, the eyes (n=6) were enucleated and the retina/vitreous humor from two eyes were pooled to make single-cell suspensions. The cells were stained with anti-CD45 and anti-Ly6G mAbs. Post-acquisition, the cells were size-gated to differentiate them from debris. The percentage of dually positive PMNs was determined using a CD45-versus-Ly6G dot plot (upper-right quadrant). The data are summarized in a bar graph representative of duplicate experiments. *p<0.05 (student t-test)
Following euthanasia, the retinas were isolated from the eyes as described by Skeie et al. (2011. J. Vis. Exp. 50:2795) and were digested in Accumax (Millipore, Billerica, Mass.) for 10 min at 37° C. Retinas from two eyes were pooled together to obtain a sufficient number of cells. Following digestion, the retinal tissue was passed through a 23-gauge needle & syringe and filtered through a 40 μm cell strainer (BD Falcon, San Jose, Calif.). […] After subsequent washing steps, the cells were acquired on an Accuri C6 flow cytometer (Accuri, Ann Arbor, Mich.), and the data were analyzed using Accuri C6 software (Accuri, Ann Arbor, Mich.).

[2] = system: inflammatory cytokines/chemokines in S. aureus-infected eyes; assay: Mouse S. aureus endophthalmitis: inflammatory cytokines/chemokines by ELISA; type: in vivo, C57BL/6 mice
Description: Following treatment with chimeric Ply187AN-KSH3b or EB (EB C), the eyes (n=4 per time point) were enucleated and 10 μg protein lysate was used for the detection of indicated inflammatory cytokines/chemokines by ELISA. *p<0.05, **p<0.005 (student t-test, SA or EB vs. Ply187AN-KSH3b-treated)
To measure the inflammatory cytokines, retinal extracts were processed by homogenization in 250 μl of PBS, followed by centrifugation at 12,000×g for 10 min. PBS-injected mice were used as normal controls (PBS C) and EB-treated mice were used as vehicle controls (EB C). The protein concentration of the retinal lysate was determined by the Micro BCA™ protein assay kit (Thermoscientific, Rockford, Ill.). Equal amounts of protein were used to perform the ELISA, per the manufacturer's instructions (BD biosciences, San Diego, Calif. (IL-6, IL1β & TNFα) and R & D systems, Minneapolis, Minn. (MIP2 & KC).

[3] = system: S. aureus strain RN6390; assay: Resistance development assay by repeated exposure in an MIC assay; type: cell-based, Staphylococcus aureus; settings: RN6390, up to 10 rounds of exposure
Description: Error bars represent SEM for three independent experiments performed in triplicates. […] Cells surviving at half (½) of the MIC value were used as an inoculum for each subsequent round of exposure. The change in susceptibility is recorded and presented as fold change resistance from day 1 to 10 of exposure and also after 5 days of growth (without any selection pressure) following the 10th day (represented as 10+5). The data represent means±SEM of two independent experiments performed in triplicate.
To verify and quantify the lytic activity against live S. aureus, we have tested Ply187AN-KSH3b in the Turbidity Reduction Assay. The turbidity assay measures the drop in optical density (OD) resulting from lysis of the target bacteria with the phage endolysin-derived protein. Turbidity reduction assays by chimeric Ply187AN-KSH3b were performed in a 96 well plate as described previously by Becker et al. (2009a, 2009b, supra). Briefly, S. aureus strains/isolates RN6390, USA 300, and clinical isolates R2932, R2952 and R3000 were grown to logarithmic phase (OD600 0.4-0.6) at 37° C. in tryptic Soy broth (TSB). The culture was harvested by centrifugation and the pellet was resuspended in assay buffer (400 mM NaCl, 20 mM Tris HCl, 1% glycerol, pH 7.5). Bacterial cultures (100 μl/well) were mixed with 100 μl of (as per MIC) of chimeric Ply187AN-KSH3b protein diluted in the same assay buffer. The reduction in the turbidity was measured after every 5 min up to 1 h using a micro plate reader. EB diluted in the same assay buffer (without chimeric Ply187AN-KSH3b protein) was used as a control (EB C). Resistance development against chimeric Ply187AN-KSH3b was tested using repeated exposure in an MIC assay as described by Rodriguez-Rubio and co-workers (Rodriguez-Rubio et al., PLoS One 8:e64671.). In brief, bacterial cultures (10^5 CFU/well) were exposed overnight to a 2-fold serial dilution of chimeric Ply187AN-KSH3b, lysostaphin, and gentamicin, where the latter serve as controls. […]

[4] = intravitreal injection alone
[5] = system: S. aureus R 2952 (HA-MRSA); assay: MIC against S. aureus strains (Table 1); type: cell-based, Staphylococcus aureus; settings: mean of three experiments ± SEM
Description: (§1) For in vivo studies, an antibiotic sensitive S. aureus (SA) strain RN6390 was used to induce endophthalmitis; whereas, the in vitro studies were performed using antibiotic-resistant strains (Table 1), including USA300, a community-associated methicillin resistant S. aureus (CA-MRSA), and three clinical isolates R2932 (CA-MRSA), R2952 and R3000 (both being hospital-associated MRSA, […]), […]) kindly provided by Dr. Michael J. Rybak (Department of Pharmaceutical Sciences, Wayne State University, Detroit, Mich.). All bacteria were routinely cultured in TSB broth (Tryptic Soy broth, Sigma, St Louis, Mo.) or on TSB agar plates.
(§2) To verify and quantify the lytic activity against live S. aureus, we have tested Ply187AN-KSH3b in the Turbidity Reduction Assay. The turbidity assay measures the drop in optical density (OD) resulting from lysis of the target bacteria with the phage endolysin-derived protein. Turbidity reduction assays by chimeric Ply187AN-KSH3b were performed in a 96 well plate as described previously by Becker et al. (2009a, 2009b, supra). Briefly, S. aureus strains/isolates RN6390, USA 300, and clinical isolates R2932, R2952 and R3000 were grown to logarithmic phase (OD600 0.4-0.6) at 37° C. in tryptic Soy broth (TSB). The culture was harvested by centrifugation and the pellet was resuspended in assay buffer (400 mM NaCl, 20 mM Tris HCl, 1% glycerol, pH 7.5). Bacterial cultures (100 μl/well) were mixed with 100 μl of (as per MIC) of chimeric Ply187AN-KSH3b protein diluted in the same assay buffer. The reduction in the turbidity was measured after every 5 min up to 1 h using a micro plate reader. EB diluted in the same assay buffer (without chimeric Ply187AN-KSH3b protein) was used as a control (EB C). Resistance development against chimeric Ply187AN-KSH3b was tested using repeated exposure in an MIC assay as described by Rodriguez-Rubio and co-workers (Rodriguez-Rubio et al., PLoS One 8:e64671.). In brief, bacterial cultures (10^5 CFU/well) were exposed overnight to a 2-fold serial dilution of chimeric Ply187AN-KSH3b, lysostaphin, and gentamicin, where the latter serve as controls. In every round, 100 μl culture from the wells with growth (½ MIC value) were inoculated into fresh TSB and grown up to logarithmic phase. These cultures were used for the next round of MIC exposure. Bacteria surviving after 10 rounds were grown for an additional 5 rounds in TSB without any selection pressure to allow phenotype-reversion, then MIC were performed to measure the sensitivity to the chimeric Ply187AN-KSH3b after non-selective growth.

[6] = system: S. aureus R 2932 (CA-MRSA); assay: MIC against S. aureus strains (Table 1); type: cell-based, Staphylococcus aureus; settings: mean of three experiments ± SEM
Description: as §1, §2

[7] = system: S. aureus RN6390 (MSSA); assay: MIC against S. aureus strains (Table 1); type: cell-based, Staphylococcus aureus; settings: mean of three experiments ± SEM
Description: as §1, §2

[8] = 6 h and 12 h treatment, vs vehicle-treated and S. aureus control eyes

B1: Ply187AN-KSH3b: staphylococcal peptidoglycan hydrolase fusion protein: endopeptidase domain of prophage endolysin Ply187 plus SH3b cell wall-binding domain of phage K endolysin LysK (SEQ ID NO:1) (protein)
chain: MALPKTGKPTAKQVVDWAINLIGSGVDVDGYYGRQCWDLPNYIFNRYWNFKTPGNARDMAWYRYPEGFKVFRNTSDFVPKPGDIAVWTGGNYNWNTWGHTGIVVGPSTKSYFYSVDQNWNNSNSYVGSPAAKIKHSYFGVTHFVRPAYKAEPKPTPPLESTPATRPVTGSWKKNQYGTWYKPENATFVNGNQPIVTRIGSPFLNAPVGGNLPAGATIVYDEVCIQAGHIWIGYNAYNGNRVYCPVRTCQGVPPNQIPGVAWGVFKVEHHHHHH
modifications: Chemically Synthesized Fusion Protein
- reduction in neutrophil (PMN) infiltration [1]: 40-50% and ~50%
- level of IL-1β [2, 8]: dramatically reduced levels
- level of IL-6 [2, 8]: dramatically reduced levels
- level of KC (CXCL1) [2, 8]: dramatically reduced levels
- level of MIP2 (CXCL2) [2, 8]: dramatically reduced levels
- level of TNFα [2, 8]: dramatically reduced levels
- MIP-2 reduction, 6 h compared with 12 h treatment ([2]; 6 h vs. 12 h treatment): greater reduction after 6 h vs. 12 h treatment
- fold change in resistance [3]: failed to develop any resistance
- inflammatory response in the eye [4]: does not evoke an inflammatory response
- MIC [5]: 8.33 ± 2.08 µg/mL
- MIC [6]: 4.16 ± 1.04 µg/mL
- MIC [7]: 4.16 ± 1.04 µg/mL
